Test results published in patent US20120021972A1 (CADILA HEALTHCARE, published 2012).
Non-standard residues stand in square brackets, D forms with d. No end group written: not given here. 2CF3,4F‑APPA = 2-amino-5-(4-fluoro-2-(trifluoromethyl)phenyl)pentanoic acid; 2CF3‑APPA = 2-amino-5-(2-(trifluoromethyl)phenyl)pentanoic acid; Bip(2'-Et-4'-OMe) = CCc1cc(OC)ccc1-c1ccc(C[C@H](N)C(=O)O)cc1; Nva(5-(3,5-Me2Ph)) = Cc1cc(C)cc(CCC[C@H](N)C(=O)O)c1; 2F‑APPA = 2-amino-5-(2-fluorophenyl)pentanoic acid; αMePhe(2-F) = C[C@](N)(Cc1ccccc1F)C(=O)O; CNB = not defined here; Ac3c = NC1(C(=O)O)CC1; Aib = CC(C)(N)C(=O)O

What was measured:
Assay in all cases: cell-based or functional assay
human glucagon receptor = human glucagon receptor (human, UniProt P47871 26-477)
human GLP-1 receptor [1] = molecular target: T1, human GLP-1 receptor (human, UniProt P43220 24-463)
human GLP-1 receptor [2] = molecular target: T1, human GLP-1 receptor; remark: listed apart in the source

T1 sequence (P43220 24-463): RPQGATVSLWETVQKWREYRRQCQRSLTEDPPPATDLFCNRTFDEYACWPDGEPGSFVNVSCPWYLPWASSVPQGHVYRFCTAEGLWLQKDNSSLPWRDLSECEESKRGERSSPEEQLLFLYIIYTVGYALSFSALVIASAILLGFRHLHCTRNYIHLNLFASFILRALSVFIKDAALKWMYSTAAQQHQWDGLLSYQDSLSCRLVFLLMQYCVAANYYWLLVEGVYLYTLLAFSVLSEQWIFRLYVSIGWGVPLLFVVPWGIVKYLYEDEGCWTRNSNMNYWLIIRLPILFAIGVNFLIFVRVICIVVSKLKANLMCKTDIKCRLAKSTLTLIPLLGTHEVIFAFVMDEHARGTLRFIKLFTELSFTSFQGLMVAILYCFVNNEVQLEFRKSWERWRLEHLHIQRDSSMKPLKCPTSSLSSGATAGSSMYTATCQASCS

B1: Seq. ID. No. 79: H-Aib-(CNB)-GTFTSD-Bip(OMe)-(2CF3-APPA) (peptide)
peptide: H[Aib][CNB]GTFTSD[Bip(2'-Et-4'-OMe)][2CF3‑APPA]
modifications: reading uncertain
inhibition of cAMP production, 1 nM (human glucagon receptor): 6 pmol/ml/µg prt
inhibition of cAMP production, 10 nM (human glucagon receptor): 5 pmol/ml/µg prt
inhibition of cAMP production, 100 nM (human glucagon receptor): 2 pmol/ml/µg prt
inhibition of cAMP production, 1 µM (human glucagon receptor): 0 pmol/ml/µg prt
inhibition of cAMP production, 10 µM (human glucagon receptor): 0 pmol/ml/µg prt
cAMP release, % activity, 1 nM (human GLP-1 receptor [1]): 62%
cAMP release, % activity, 10 nM (human GLP-1 receptor [1]): 94%
cAMP release, % activity, 100 nM (human GLP-1 receptor [1]): 99%
cAMP release, % activity, 1 µM (human GLP-1 receptor [1]): 99%
cAMP release, % activity, 10 µM (human GLP-1 receptor [1]): 99%

B2: Seq. ID. No. 38: H-Aib-QGT-(α-Me-2F-Phe)-TSD-Bip(OMe)-(ADMP) (peptide)
peptide: H[Aib]QGT[αMePhe(2-F)]TSD[Bip(2'-Et-4'-OMe)][Nva(5-(3,5-Me2Ph))]
EC50, cAMP, H GLP-1 R assay (human GLP-1 receptor [2]): 0.34 nM

B3: Seq. ID. No. 77: H-Aib-(CNB)-GTFTSD-Bip(OMe)-(2F-APPA) (peptide)
peptide: H[Aib][CNB]GTFTSD[Bip(2'-Et-4'-OMe)][2F‑APPA]
modifications: reading uncertain
inhibition of cAMP production, 1 nM (human glucagon receptor): 20 pmol/ml/µg prt
inhibition of cAMP production, 10 nM (human glucagon receptor): 18 pmol/ml/µg prt
inhibition of cAMP production, 100 nM (human glucagon receptor): 16 pmol/ml/µg prt
inhibition of cAMP production, 1 µM (human glucagon receptor): 14 pmol/ml/µg prt
inhibition of cAMP production, 10 µM (human glucagon receptor): 12 pmol/ml/µg prt
cAMP release, % activity, 1 nM (human GLP-1 receptor [1]): 40%
cAMP release, % activity, 10 nM (human GLP-1 receptor [1]): 81%
cAMP release, % activity, 100 nM (human GLP-1 receptor [1]): 87%
cAMP release, % activity, 1 µM (human GLP-1 receptor [1]): 95%
cAMP release, % activity, 10 µM (human GLP-1 receptor [1]): 98%

B4: Seq. ID. No. 72: H-(ACP)-QGTFTSD-Bip(OMe)-(2CF3,4F-APPA) (peptide)
peptide: H[Ac3c]QGTFTSD[Bip(2'-Et-4'-OMe)][2CF3,4F‑APPA]
inhibition of cAMP production, 1 nM (human glucagon receptor): 9 pmol/ml/µg prt
inhibition of cAMP production, 10 nM (human glucagon receptor): 6 pmol/ml/µg prt
inhibition of cAMP production, 100 nM (human glucagon receptor): 5 pmol/ml/µg prt
inhibition of cAMP production, 1 µM (human glucagon receptor): 3 pmol/ml/µg prt
inhibition of cAMP production, 10 µM (human glucagon receptor): 0 pmol/ml/µg prt
cAMP release, % activity, 1 nM (human GLP-1 receptor [1]): 45%
cAMP release, % activity, 10 nM (human GLP-1 receptor [1]): 84%
cAMP release, % activity, 100 nM (human GLP-1 receptor [1]): 90%
cAMP release, % activity, 1 µM (human GLP-1 receptor [1]): 99%
cAMP release, % activity, 10 µM (human GLP-1 receptor [1]): 99%
